Results taken from US20130045922A1 (CHILDREN S MEDICAL CENTER, published 2013).

Molecular target: I^125-VEGF
Assay: cell-based or functional assay

I^125-VEGF, sequence (P15692 whole entry): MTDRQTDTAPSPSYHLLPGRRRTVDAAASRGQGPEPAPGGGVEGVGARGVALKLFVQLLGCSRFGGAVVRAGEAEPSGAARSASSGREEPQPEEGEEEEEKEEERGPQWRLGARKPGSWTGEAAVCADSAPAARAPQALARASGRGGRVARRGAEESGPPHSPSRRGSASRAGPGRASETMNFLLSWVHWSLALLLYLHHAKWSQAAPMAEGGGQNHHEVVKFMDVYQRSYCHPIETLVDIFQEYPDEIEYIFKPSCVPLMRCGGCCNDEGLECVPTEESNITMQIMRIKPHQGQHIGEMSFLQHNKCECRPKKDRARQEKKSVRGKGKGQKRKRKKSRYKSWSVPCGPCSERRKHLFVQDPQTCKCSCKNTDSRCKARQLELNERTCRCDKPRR

Binder: DRVQAQTTTVVA [Ala-5 (DRVQAQTTTVVA)]
- ability of endothelial cells to bind VEGF in the presence of peptide: > 2 fold over original #237
